Experimental data reported in publication PMC12151148.

Experiments:
AGS3-TPR (1–405) (mouse) = test: ITC; 25°C; 50 mM Tris (pH 8.0), NaCl raised to 300 mM for AGS3-TPR or AGS3-L, 1 mM EDTA; one protein (0.2 mM) injected into another (0.02 mM); one-site binding model
FL-AGS3 (mouse) = test: ITC; 25°C; 50 mM Tris (pH 8.0), 100 mM NaCl, 1 mM EDTA; one protein (0.2 mM) injected into another (0.02 mM); one-site binding model
FL-LGN (mouse) = test: as above
[1] = target: LGN-GL1234 (483–650) (mouse); test: as above

Sequence of Gαi3⋅GDP (P08754 whole entry): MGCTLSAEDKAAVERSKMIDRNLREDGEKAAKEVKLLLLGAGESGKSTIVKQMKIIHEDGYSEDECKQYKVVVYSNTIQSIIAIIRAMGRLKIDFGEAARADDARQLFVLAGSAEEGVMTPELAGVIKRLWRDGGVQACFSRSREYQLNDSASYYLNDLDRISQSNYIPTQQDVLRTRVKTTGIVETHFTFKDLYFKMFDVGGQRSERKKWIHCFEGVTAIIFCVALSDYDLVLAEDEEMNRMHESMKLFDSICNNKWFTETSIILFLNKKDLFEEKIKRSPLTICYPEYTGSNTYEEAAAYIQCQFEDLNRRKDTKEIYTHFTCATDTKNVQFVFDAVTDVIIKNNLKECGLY

Kd (AGS3-TPR (1–405) (mouse)) [nM] | Kd (FL-AGS3 (mouse)) [nM] | Kd (FL-LGN (mouse)) [nM] | stoichiometry N (Gαi3⋅GDP per GoLoco domain) [1] | Substance
170 | – | – | – | AGS3-GL1234 (470–631) (domain or fragment)
– | 1600 | 1170 | 4 | Gαi3⋅GDP (from UniProt P08754 1-354) (natural protein)
